In patent US20030124119A1 (published 2003):
Substitutions are numbered along the chain they refer to.

B1: humanized #23-57-137-1 antibody having L-chain version “s” (H-chain version “a”) (antibody, V domains shown)
VH: QVQLVESGGGVVQPGRSLRLSCAASGFTFSSYGMSWVRQAPGKGLEWVATISSGGSYTYYPDSVKGRFTISRDNSKNTLYLQMNSLRAEDTAVYYCARQTTMTYFAYWGQGTLVTVSS
VL: QLVLTQSPSASASLGASVKLTCTLSSQHSTYTIEWYQQQPEKGPKYVMDLKQDGSHSTGDGIPDRFSGSSSGAERYLTISSLQSEDEADYICGVGDTIKEQFVYVFGGGTKLTVLG
notes: also called hMBC1Lsλ
B2: mouse FR1,2/human FR3,4 hybrid antibody (L-chain m/hMBC1Ldλ, H-chain hMBC1HcDNA) (antibody, V domains shown)
VH: B1 VH
VL: QLVLTQSSSASFSLGASAKLTCTLSSQHSTYTIEWYQQQPLKPPKYVMDLKQDGSHSTGDGIPDRFSGSSSGAERYLTISSLQSEDEADYICGVGDTIKEQFVYVFGGGTKLTVL
notes: Human Cγ1 and human λ C-regions
B3: mouse FR1,2/human FR3,4 hybrid antibody (L-chain m/hMBC1Laλ, H-chain hMBC1HcDNA) (antibody, V domains shown)
VH: B1 VH
VL: B2 VL with I91Y
notes: as for B2
B4: humanized #23-57-137-1 antibody having L-chain version “o” (H-chain version “a”) (antibody, V domains shown)
VH: B1 VH
VL: B1 VL with K45R, I91Y
notes: Human Cγ1 and human λ C-regions; also called hMBC1Loλ
B5: humanized #23-57-137-1 antibody having L-chain version “l” (H-chain version “a”) (antibody, V domains shown)
VH: B1 VH
VL: B1 VL with I91Y
notes: Human Cγ1 and human λ C-regions; also called hMBC1Llλ
B6: humanized #23-57-137-1 antibody having L-chain version “t” (H-chain version “a”) (antibody, V domains shown)
VH: B1 VH
VL: B1 VL with K45R
notes: Human Cγ1 and human λ C-regions; also called hMBC1Ltλ
B7: humanized #23-57-137-1 antibody having L-chain version “q” (H-chain version “a”) (antibody, V domains shown)
VH: B1 VH
VL: B1 VL with V47L
notes: Human Cγ1 and human λ C-regions; also called hMBC1Lqλ
B8: humanized #23-57-137-1 antibody having L-chain version “j” (H-chain version “a”) (antibody, V domains shown)
VH: B1 VH
VL: B1 VL with V47L, I91Y
notes: Human Cγ1 and human λ C-regions; also called hMBC1Ljλ
B9: human FR1/mouse FR2,3,4 hybrid antibody (L-chain hmmMBC1L(λ), H-chain hMBC1HcDNA) (antibody, V domains shown)
VH: B1 VH
VL: B2 VL with S8P, F12A, A18V, E74D, T78S, S81N, L82I, S84P, D89M, L112V
notes: Human Cγ1 and human λ C-regions; also called FR1/FR2 hybrid antibody
B10: antibody having both a humanized H-chain version “a” and a chimeric L-chain (antibody, V domains shown)
VH: B1 VH
VL: QLVLTQSSSASFSLGASAKLTCTLSSQHSTYTIEWYQQQPLKPPKYVMDLKQDGSHSTGDGIPDRFSGSSSGADRYLSISNIQPEDEAMYICGVGDTIKEQFVYVFGGGTKVTVLG
notes: Human Cγ1 H-chain C-region
B11: humanized #23-57-137-1 antibody having L-chain version “r” (H-chain version “a”) (antibody, V domains shown)
VH: B1 VH
VL: B1 VL with K45R, V47L
notes: also called hMBC1Lrλ
B12: humanized #23-57-137-1 antibody having L-chain version “m” (H-chain version “a”) (antibody, V domains shown)
VH: B1 VH
VL: B1 VL with K45R, V47L, I91Y
notes: Human Cγ1 and human λ C-regions; also called hMBC1Lmλ
B13: chimeric #23-57-137-1 antibody with L-chain λ chain C-region (antibody, V domains shown)
VH: EVQLVESGGDLVKPGGSLKLSCAASGFTFSSYGMSWIRQTPDKRLEWVATISSGGSYTYYPDSVKGRFTISRDNAKNTLYLQMSSLKSEDTAMFYCARQTTMTYFAYWGQGTLVTVSA
VL: B10 VL
notes: expressed in COS-7 cells; also called chimeric antibody; MBC1HcDNA/pCOS1 and MBC1L(λ)/neo
B14: chimeric #23-57-137-1 antibody with L-chain κ chain C-region (antibody, V domains shown)
VH: B13 VH
VL: B10 VL
notes: Mouse V-regions with human Cγ1 H-chain C-region and human κ C-region; expressed in COS-7 cells; also called chimeric antibody; MBC1HcDNA/pCOS1 and MBC1L(κ)/neo
B15: mouse monoclonal antibody #23-57-137-1 against human PTHrP (1-34) (antibody, V domains shown)
VH: B13 VH
VL: B10 VL
notes: Mouse antibody from the hybridoma (FERM BP-5631); mouse λ L-chain; tested as hybridoma culture supernatant

Target: T1, human PTHrP (1-34) (human)
T1 construct: Coated on ELISA plates (Peptide Research Institute) and used in RIA screening and the cAMP assay
Test: ELISA, plate coated with 1 µg/ml human PTHrP (1-34)
Protocol: An ELISA plate for the determination of antigen-binding ability was prepared as follows. Each well of a 96-well ELISA plate was coated with 100 μl of a coating buffer supplemented with 1 μg/ml of human PTHrP (1-34) (Peptide Research Institute), and then blocked with 200 μl of a dilution buffer. Each well was added with each of the serial dilutions of the COS-7 cell culture supernatant in which each of the chimeric antibodies had been expressed, or added with each of the serial dilutions of each of the chimeric antibodies per se in a purified form. After the plate was incubated at room temperature and washed with PBS-Tween 20, each well of the plate was added with 100 μl of a solution of alkaline phosphatase-conjugated goat anti-human IgG antibodies (TAGO). After the plate was incubated at room temperature and washed with PBS-Tween 20, each well of the plate was added with 1 mg/ml of a substrate solution (“Sigma 104”, p-nitrophenylphosphoric acid, SIGMA). The solution was measured on its absorbance at 405 nm using Microplate Reader (Bio Rad).
An ELISA plate for determining antigen-binding ability was prepared as follows. Each well of a 96-well ELISA plate (Maxisorp, NUNC) was coated with 100 μl of a coating buffer containing 1 μg/ml of human PTHrP (1-34) and then blocked with 200 μl of a dilution buffer. Subsequently, each well was added with each of the serial dilutions of the COS-7 cell culture supernatant in which each of the hybrid antibodies and humanized antibodies was expressed, or added with each of the serial dilutions of each of the hybrid antibodies and humanized antibodies in a purified form. The plate was incubated at room temperature and washed with PBS-Tween 20. Subsequently, each well was added with 100 μl of alkaline phosphatase-conjugated goat anti-human IgG antibody (TAGO). The plate was incubated at room temperature and washed with PBS-Tween 20. Subsequently, each well was added with 1 mg/ml of a substrate solution (“Sigma 104”, p-nitrophenylphosphoric acid, SIGMA). The solution was measured on its absorbance at 405 nm using Microplate Reader (Bio Rad).

Binding result, binds:
B1, B2, B3, B4, B5, B6, B7, B8, B9, B10, B11, B12, B13, B14

Target: T1, human PTHrP (1-34)
Test: solid phase RIA of hybridoma culture supernatants
Protocol: The screening of hybridomas was performed by determining the presence of PTHrP-recognition antibodies in the culture supernatant of the wells in which cell growth had been observed in HAT medium, by solid phase RIA method. The hybridomas were collected from the wells in which the binding ability to the PTHrP-recognition antibodies had been confirmed. The hybridomas thus obtained was suspended into RPMI-1640 medium containing 15% FCS supplemented with OPI-supplement (Sigma), followed by unification of the hybridomas by limiting dilution method.

Binding result, binds:
B15
